# Source: patent US7655420B2, “Methods to increase or decrease bone density” (Celltech R & D, Inc., priority 2002, dated 2010)
# “Also recorded” adds a separate entry of the source.
# Columns and labels:
# [1] = system: alkaline phosphatase activity in primary human osteoblasts; assay: histochemical staining for alkaline phosphatase in primary human osteoblasts; assay type: cell-based; settings: primary human osteoblasts in Inducing media, Sclerostin 20 μg/ml, 7 days
# Procedure: Primary human osteoblasts were grown in regular growth media or in Inducing media (to promote differentiation) and then treated with Sclerostin (20 μg/ml) or Control (protein purified from Sf9 conditioned media) for 7 days prior to histochemical staining for alkaline phosphatase activity. Osteoblasts grown in regular growth media expressed low, basal levels of ALP (“No Treatment,” far right panel).
# [2] = system: apoptosis genes; assay: Apoptosis Gene Array of hMSC treated with sclerostin; assay type: cell-based, human
# Procedure: In another study, hMSC were treated with vehicle or sclerostin for 6 hrs or 48 hrs. Cells were harvested, RNA prepared and used for the analysis of a commercially available Apoptosis Gene Array (SuperArray, Bethesda, Md.). To further investigate the effects of sclerostin on the apoptosis of hMSC, RNA was harvested from vehicle and sclerostin-treated cells and used the RNA to probe a cDNA expression array containing apoptosis genes. The results for vehicle and sclerostin-treated samples were compared and data (corrected for background) were expressed as a ratio of sclerostin to vehicle.
# [3] = system: hMSC cells; assay: apoptosis of hMSC cells by TUNEL staining; assay type: cell-based, human; settings: Sclerostin 20 μg/ml, 24 hrs
# Procedure: (§1) Human mesenchymal (hMSC) cells were plated in Osteoblast-inducing media (Biowhittaker's MSCGM medium supplemented with 100 nM dexamethasone, 50 μg/ml ascorbic acid, and 10 mM β-glycerophosphate) at a density of 10,000 cells/cm^2 in 96-well dishes.
# For apoptosis determination by TUNEL staining, cells were treated for 24 hrs with a partially purified preparation of bacculovirus-expressed human sclerostin (20 μg/ml) or an equal volume of a protein preparation purified from Sf9 conditioned media (control). Cells were fixed with paraformaldehyde and processed using Roche's In Situ Cell Death Detection kit.
# [4] = system: alkaline phosphatase (ALP) activity in hMSC cells; assay: alkaline phosphatase activity in differentiating hMSC cells; assay type: cell-based, human; settings: for basal alkaline phosphatase activity, increasing concentrations (dose-dependent) / ALP activity: hMSC cells, Osteoblast-Inducing media; for ALP activity: 7 days
# Procedure: (§2) hMSC cells were plated in 96-well tissue culture dishes at a density of 10,000 cells/cm^2 in Osteoblast-Inducing medium. Partially purified preparations of baculovirus-expressed sclerostin protein were prepared in sterile PBS using NAP-5 columns prior to use. Human sclerostin protein (0 to 30 μg/ml) or an equal volume of Sf9 conditioned media (Control) was added to cultures of hMSC cells at various times after plating (1 day, 8 days, 15 days, or 21 days). The effects of sclerostin on osteoblastic differentiation were assessed by measuring alkaline phosphatase activity (ALP, determined in cell layers using DEAA buffer (Pierce) containing 0.5% NP-40 and 10 mM p-nitrophenylphosphate), synthesis of collagen type I (Prolagen C ELISA), and calcium deposition for mineralization (colorimetric assay of acid lysates of cell layers, Sigma).
# [5] = system: alkaline phosphatase (ALP) activity in hMSC cells; assay: as above; assay type: cell-based, human; settings: BMP-6 500 ng/ml plus increasing concentrations of sclerostin-Flag protein
# [6] = system: type I collagen synthesis in hMSC cells; assay: synthesis of collagen type I in hMSC cells (Prolagen C ELISA); assay type: cell-based, human
# Procedure: FIG. 13 illustrates that partially purified preparations of human sclerostin reduce the synthesis of type I collagen by about 50% in cells treated with 10 μg/ml of sclerostin (p<0.001 to control). hMSC cells were cultured in Osteoblast-Inducing media and treated with partially-purified sclerostin protein or proteins purified from Sf9 conditioned media (Control) for 21 days. Sclerostin or Control at the indicated concentrations was added 8 days after plating.
# as §2
# [7] = system: BMP-6 stimulated alkaline phosphatase activity; assay: BMP-6 stimulated alkaline phosphatase activity in mouse mesenchymal C3H10T1/2 cells; assay type: cell-based
# Procedure: C3H10T1/2 cells (ATCC Deposit No. CCL-226) were plated in 96-well dishes at a density of 25,000 cells per well in complete growth medium (DMEM with high glucose and glutamine supplemented with 10% FCS, 1% penicillin/streptomycin, 0.1 mM non-essential amino acids, 1 mM sodium pyruvate, 55 μM β-mercaptoethanol, and 20 mM HEPES, pH 7.3). C3H10T1/2 cells were used in a short-term (72 hr) assay to determine the effects of human sclerostin protein on BMP-induced ALP activity. Partially purified preparations of bacculovirus-expressed sclerostin protein were prepared in sterile PBS using NAP-5 columns prior to use. Sclerostin protein (0 to 50 μg/ml) or an equal volume of Sf9 conditioned media (control) was pre-incubated with 500 ng/ml BMP-6 for 1 hr prior to addition to cells. For comparison, similar incubations were carried out with anti-BMP-6 antibody and noggin. Cells were harvested 72 hrs later for determination of ALP activity.
# To test the specificity of the sclerostin effect, human sclerostin that was synthesized with a FLAG tag, was pre-incubated for 2 hrs at 4° C. with an anti-FLAG antibody coupled to agarose beads. The mixture was then spun down at 10,000×g for 15 minutes at 4° C. and the supernatant treated as “sclerostin protein” in the above assay.
# [8] = system: hMSC cells; assay: CellTiterGlo viability assay of hMSC cells; assay type: cell-based, human; settings: Osteoblast-Inducing media, increasing amounts of sclerostin, 1 week, versus control
# Procedure: as §1
# For cell viability assays, cells were treated with a partially purified preparation of bacculovirus-expressed human sclerostin (0 to 20 μg/ml) or an equal volume of a protein preparation purified from Sf9 conditioned media (control) for 1 week. Sclerostin and control were refreshed upon media change. Cells were then lysed and processed using Promega's CellTiterGlo Luminescence Viability Assay.
# [9] = hMSC, 6 hrs, Anti-apoptotic gene
# [10] = hMSC, 48 hrs, Anti-apoptotic gene
# [11] = hMSC, 48 hrs, Proapoptotic gene
molecule,measurement,setting,value
"sclerostin: partially purified baculovirus-expressed human sclerostin protein, SOST gene product (SEQ ID NO:3); also made with a FLAG tag (protein, listed as Homo sapiens, optional FLAG tag) MQLPLALCLVCLLVHTAFRVVEGQGWQAFKNDATEIIPELGEYPEPPPELENNKTMNRAENGGRPPHHPFETKDVSEYSCRELHFTRYVTDGPCRSAKPVTELVCSGQCGPARLLPNAIGRGKWWRPSGPDFRCIPDRYRAQRVQLLCPGGEAPRARKVRLVASCKCKRLTRFHNQSELKDFGTEAARPQKGRKPRPRARSAKANQAELENAY",amount of ALP expressed (histochemical stain),[1],marked decrease
same,increase in the expression of apoptosis-associated genes and genes involved in cell survival,[2]; hMSC treated for 6 hrs with sclerostin,2 to 4 fold
same,"Ratio of sclerostin to vehicle, Bruce",[2]; [9],1.45 ± 0.75
same,"Ratio of sclerostin to vehicle, Survivin, IAP2",[2]; [9],1.32 ± 0.48
same,"Ratio of sclerostin to vehicle, XIAP",[2]; [9],2.01 ± 0.64
same,"Ratio of sclerostin to vehicle, BAX","[2]; hMSC, 6 hrs, Proapoptotic gene",1.53 ± 0.2
same,"Ratio of sclerostin to vehicle, Bcl10","[2]; hMSC, 6 hrs, Proapoptotic gene",4.09 ± 2.13
same,"Ratio of sclerostin to vehicle, Caspase 3","[2]; hMSC, 6 hrs, Proapoptotic gene",2.46 ± 0.69
same,"Ratio of sclerostin to vehicle, Caspase 4","[2]; hMSC, 6 hrs, Proapoptotic gene",1.83 ± 1.12
same,"Ratio of sclerostin to vehicle, Caspase 7","[2]; hMSC, 6 hrs, Proapoptotic gene",1.76 ± 0.18
same,"Ratio of sclerostin to vehicle, Hrk","[2]; hMSC, 6 hrs, Proapoptotic gene",1.59 ± 0.39
same,"Ratio of sclerostin to vehicle, Myd88","[2]; hMSC, 6 hrs, Proapoptotic gene",1.4 ± 0.31
same,"Ratio of sclerostin to vehicle, Casper",[2]; [10],2.68 ± 0.28
same,"Ratio of sclerostin to vehicle, I-TRAF",[2]; [10],2.05 ± 0.54
same,"Ratio of sclerostin to vehicle, Mdm2",[2]; [10],1.66 ± 0.34
same,"Ratio of sclerostin to vehicle, Bak1",[2]; [11],2.36 ± 0.74
same,"Ratio of sclerostin to vehicle, Bax",[2]; [11],1.64 ± 0.3
same,"Ratio of sclerostin to vehicle, Bcl10",[2]; [11],1.84 ± 0.76
same,"Ratio of sclerostin to vehicle, Blk",[2]; [11],1.83 ± 0.12
same,"Ratio of sclerostin to vehicle, Myd88",[2]; [11],2.64 ± 1.3
same,Tunel staining for apoptotic nuclei,[3],Increased staining for apoptotic nuclei
same,Tunel staining for apoptotic nuclei,[3]; listed as human sclerostin,undergo apoptosis
same,decrease of alkaline phosphatase activity,"[4]; hMSC cells treated with about 10 to 15 μg/ml of the protein, p<0.001 to control",about 50%
same,"basal alkaline phosphatase activity, increasing concentrations (dose-dependent)",[4],significantly reduced; also recorded: decreased
same,ALP activity,[4]; protein at 1 μg/ml,decreased
same,ALP activity,[4]; protein at 5 μg/ml,decreased
same,"basal alkaline phosphatase activity, increasing concentrations (dose-dependent)",[4]; listed as Sclerostin,decreased
same,"basal alkaline phosphatase activity, increasing concentrations (dose-dependent)",[4]; listed as human sclerostin,decreases
same,BMP-6 induced alkaline phosphatase activity,[5],reduced; also recorded: decreased
same,reduction of synthesis of type I collagen,"[6]; hMSC cells, 10 μg/ml of sclerostin, 21 days, p<0.001 to control",about 50%
same,"synthesis of collagen type I, dose dependence",[6]; hMSC cultures,decreased in a dose-dependent manner
same,stimulatory effect of BMP-6 on alkaline phosphatase activity (antagonism),"[7]; 500 ng/ml BMP-6, 72 hrs",antagonized
same,antagonism of BMP-6 after immuno-depletion with anti-Flag M2 antibody/agarose complex,[7]; Flag-tagged sclerostin preparation,completely abolished
same,"IC50, decrease of BMP-6 stimulated alkaline phosphatase activity","[7]; pre-incubated with 500 ng/ml BMP-6 for 1 hr, 72 hrs",10 µg/mL
same,viability of hMSC cells,[8],significantly reduced; also recorded: decreases the viability
